Assay: yeast display, Sf9 membrane polyspecificity reagent, FACS + sequencing; frameworks hold sequencing errors
Procedure, shortened: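 Sorting gates, low and high (top ~1%), were placed on anti-HA fluorescence to track expression and on streptavidin fluorescence to track reagent binding. A clone's polyreactivity label is taken from the gate it came out of. The reagent was 10% biotinylated, detergent-solubilized Sf9 membrane, applied for 1 hour at 4 °C to galactose-induced yeast display cells.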

| Sequence | polyreactivity (PSR sort gate) |
| --- | --- |
| QVQLVESGGGLVQAGGSLRLSCAASGSTFGLYAMGWYRQEPGKERELVAAITWRASSTYYADSVKGRFTISRDNAKNTVYLQMNSLKPEDTAVYYCAATWYSRFSRGDYDYWGQGTLVTVSS | high polyreactivity |
| QVQLVESGGGLVQAGGSLRLSCAASGRTFVLYTMGRYRQAPGKERELVAVGSTYYADSVKGRFTISRDNAKNTVYLQMNSLKPEDTAVYYCNKPGNYVWRRSWDFDYWGQGTQVTVSS | high polyreactivity |
| QVQLVESGGGLVQAGGSLRLSCAASGRIFWVNVMGWYRQGPGKERELVAAITRGASTYADSVKGRFTISRDNAKNTVYLQLNSLKPEDTAVYYCAADSKRRSIRYDYWGQGTQVTVSS | high polyreactivity |
| QVKLVESGGGLVQAGGSLRLSCAASGSIFRRYGMGWYRQAPGKERELVAVITRGGSTYYADSVKGRFTISRDNAKNTVYLQMNSLKPEDTAVYYCNRSAGKDGQVGGQYDYWGQGTQVTVSS | high polyreactivity |
| QVQLVESGGGLDQAGGSLRLSCAASGFTFYPYAMGWYRQAPGKERELVASITSAGGTNYADSVKGRFTISRDNAKNTVYVQLNSLKPEDTAVYYCAAKYRSRGPDYYFNSDYWGQGTQVTVSS | low polyreactivity |
| QVQHVESGLGLVQAGCSLRLSCAASGITFYPYTMGWYRQAPGKERELVAAIDYNGDSTYYADSVKGRFTISRDNAKNTVYLQFNSLKPEDTAVYYCAADVWTLDPDEYDYWGQGTQVTVSS | low polyreactivity |
| QVQLVESGGLLVQAGGSLSLSCAASGRTFTPNAMGWYRQAPGKEREFVAAITYYGGSTRYADSVKGRFTISRDNAKNTVYLQMNSLIPEDTAVYYCAADVHYRYFYSWSSYSGYGYWGQGTQVTVSS | low polyreactivity |
| QVQLVESGGGLVQAGGSLRLSCAASGSIFYKYVMGWYRQAPGKERELVAAISRGGGSTYYADSVKGRFTISRDNAKNTVYLQMNSLKPEDTAVYYCNAVGRPRYGHGFDHWGQGTQVTVSS | high polyreactivity |
| QVQLVESGGCLVQAGGSLRLSCASSGITFFEYAMGCYRQAPGKERELVAVITSGGSTNYADSVKGRFTISRDNAKNTVYLQMNSLKPEDTAVYYCNARVVKYRWWYDYYYWGQGTQVTVSS | low polyreactivity |
| QVQLVESGGGLVQAGGSLRLSCAASGITFWYYAMGWYRQAPGKERELVAVISRGGSTYYADSVKGRFTISRDNAKNTVYLQMNSLKPEDTAVYYCAARPRWYTYTRQEYDYWGQGTQVTVSS | high polyreactivity |
| QVQLVESGGGLVQAGGSLRISCAASGSTFEVNAMGWYRQAPGKERELVAAISYRGTSTYYADSVKGRFTISRDNAKNTVYLQMNSLKPEDNAVYYCAAEWYDWYWEYDSWGQGTQVTVSS | high polyreactivity |
| QVQLVESGGGLVQAGGSLRLSCAGSGSTFRYYVLGWYRAAPGKDRVLVARITSAASTNYADSVKGRFTISRDNAKTTVNLQMNSLKPEDTPVYYCAADAYWIRSRFLYRIRYNYWGQGTQVTVSS | high polyreactivity |
| QVQLVESGGGLVQAGGSLRLSCAASGITFTFNAMGWYRQAPGKERELVAAITWSGGSTFYADSVKGRFTISRDNAKNTVYLQMNSLKPEDTAVYYCARDTELYVRWLDYWGQGTQVSVSS | low polyreactivity |
| QVQLVESGGGLVQEGGSLRLRCAASGRTFPINAMGWYRQAPGKERELVASIRWTDGTTYYADSVKGRFTISRDTAKNTVYLQMNSLKPEDTAVYYCAADAEGSASKYVYWGQGTQVTVSS | low polyreactivity |
| QVQLVESGGGLVQAGGSLRLSCAASGRTFRPYAMGWYRQAPGKERELVAAISYRGGITNYADSVKGRFTISRDNAKNTVYLQMNSLKPEDTAVYYCNRYAIWVSRYSDLDYWGQGTQVTVSS | low polyreactivity |
| QVQLVESGGGLVQAAGSLRLSCAASGLPSVDAMGWYRQAPGKERELVAAISLTGSSTYYADSVKGRFTISRDNAKNTVYLQRNSLKPEDTAVYYCAADSSYTPNDDNWGQGTQVTVSS | low polyreactivity |
| QVQLVESGGGLVQAGGSLRLSGAASGRIFAQYAMGWYRPAPAKERELVAAITAGDDTYADSVKGRFTISRDNAKNTVYLQMNSLKPEDTAVYYCAAETWDLTWWGAYDLGEYWGQGTQVTVSS | high polyreactivity |
| QVQLVESGGGLVQAGGSLRLSCAASGSIFGSNMGWYRQAPGKERELVAAISSRGGRTYYADSVKGRFTISRVNAKNTVYLQMNSQKPEDTAVYYCATRTFRGGRGYEYWGQGTQVTVSS | high polyreactivity |
| QVQLVESGGGLVQAGGSLRLSCAASGRILRTYAMGWYRPAPGKERELVAAISRSGGSTYYADSVKGRFTISRDNAKNTVYLQMNSLKPEDTAVYYCNKAYGGRGYKYEYWGQGTQVTVSS | high polyreactivity |
| QVQLVESGGGLVQAGGSLRLSCAASGFTFYSYARGWYRQAPGKERELVAVINSSGGRTFYADSVKGRFTISRDNAKNTVYLQMNSLKPEDTAVYYCAARYAASRGPNQGKGNYWGQGTQVTVSS | high polyreactivity |
| QVQLVESGGGLVQAGGSLRLSCAASGSIFFRYAMGWYRQATGKERELVARISWGGGRTYYADSVKGRFTISRDNAKNTVYLQMNSLKPEDTAVYYCNRAYWVNPGGFEYWGQGTQVTVSS | high polyreactivity |
| QVQLVESGGGLVQAGGSLRLSCAGLRIYLPGYAKGWYIQAPGKERELVAVISGSGSGTYYADSVKGRFTISLDNAKNTVYLQMNSLKPEDTAVYYCAADAGSNEAYFRRMDYWGQGTQVTVSS | high polyreactivity |

| Sequence | polyreactivity (PSR sort gate) |
| --- | --- |
| QVQLVESGGGLVQAGGRLRLSCAGSGRIFISNTMGWYRQGPGKERELVASISLRGGSTYYADSVKGRFTISRDNAKNSVYLQMNSLKPEDTAVYYCAAATLRQYDDEYWGQCTQVTVSS | high polyreactivity |
| QVQLVESGGGLVQAGGSLRLSCAASGRTFTDYTMGWSRQAPGKERELVASISSGVTYADSVKGRFTISRDNAKYTVYLQMNSLKPEDTEVYYCAARLWYVQGYVPYVHHRFDYWGQGTQVTVSS | low polyreactivity |
| QVQLVESGGGVVQAGGGLRLSCAASGRTFIGNAMGWYRQAPGKEREFVAYITLSGGSTYYADSVKGRFTISRDNATINVYLQMNSLKPEDRAVYYCADKRFFGYLGYNRGGSRYDYWGQGTQVTVSS | high polyreactivity |
| QVQLVESWGGLVQAGGSLRLSCAASGSIFDVNAMGWYRQAPGKERELVAAISDSGGSTYYADSVKGRFTISRDNAKNTVYLQMNSLKPEDTAVYYCNADWSWYNYYDFDYWGQGTQVTVSS | low polyreactivity |
| QVQLVESGGGLVQAGGSLRLSCAASGRTFASYAMGWYRQAPGKERELVAVISRGGSNTNYADSVKGRFTISRDNAKNTVYLQLNSLKPEDTAVYYCADLAFKRYNPGGYDYWGQGTQVTVSS | high polyreactivity |
| QVQLVESGGGLVQAAGSLRLSCAASGRISRTNAMGWYRQAPGKERQLVATINSGTGTNYADSVKGRFTISRDNAKNTVYLQMNSLKPEDTEVYYCAARYRYWPKYYPVSYRYDYWGQGTQVTVSS | low polyreactivity |
| QVQLVESGGALVQAGGSLRLSCAASGFIFRYYAMGWYRQAPWKERELVATITGRGGSTYYADSVKGRFTISRDNAMNTVYLQMNSLKPEDTAVYYCAKRGYGRYYAYDYWGQGTQVTVSS | high polyreactivity |
| QVQLVESGGGLVQAGGSLRLSCAASGGTFRVYVMGLYRQATGKERELVAAISRGGGSTYYADSVKGRFTISRDNAKNTVYLQMNSLKPEDTAVYYCAARVWRYPWRASEYDYWGQGTQVTVSS | high polyreactivity |
| QVQLVESGGGLVQAGGSLRLSCAASGRTFRSYAMGWYRQAPGKERELVAAISQRGGSTYYADSVKGRFTISRDNAKNTVYLQMNSLKPEDTAVYYCATPVRSGYDYWGQGTQVTVSS | high polyreactivity |
| QVQLVESGGGLVQAVGSLRLTCAASGSIFGHYAMGLSRHAPGKDRELVAAISASTGRTYNADSVKGRFTISRDNAKNPVYLQMNSLKPEDTAFYYCAVRVHWTIWDYYYWGQGTQVTVSS | high polyreactivity |
| QVQLVESGGGLVQAGGSLRLSCAASGRIFVRYAMGWYRQAPGKERELVAAISKSGGSTYYADSVKGRFTISRDNAKNTVYLQMNSLKPEDTAVYYCNALVRRRPGYIRYDYWGQGTQVTVSS | low polyreactivity |
| QVQLVESGGGLVQAGGSLRLSCAASGIIFIVNAMGWYRQAPGKERELVAAISNGGSTNYADSVKGRFTISRDNAKNTVYLQMNSLKPEDTAVYYCADDYSTWLRAYDYWGQGTQVTVSS | low polyreactivity |
| QFQLVESCGGLVQAGGSLRLSCAASGSIFYYYVMGWYRQAPGKEREFVAAISWRGDSTYYADSVKGRFTISRDNAKNTVYLQMNSLKPEDTAVYYCNADYPWSVVGYDYLGQGTQVTVSS | low polyreactivity |
| QVQLVESGGGLVQAGGSLRLSCAASGRTFGGYALGWYRQAPGKARELVAAITWSDTSTYYADSVKGRFRFSRDNAKNTVYLQMNSLKPEDTAVYYCAAEQWYWWDDYWGKGTQVTVSS | high polyreactivity |
| QVQLVETGGGLVQAGGSLRLSCAASGLTIHPYAKGCYRQAPGKERELVAAISSRGTSTYYADSVKGRFTISRDNAKNTVYLQMNSLKPEDTAVYYCAARHGPRAEAMYYWGQGTQVTVSS | high polyreactivity |
| QVQLVESGGGLVQAGGSLRLSCAASGRTFWYYTMGWYRQAPGKERELVAAISGSGGRTYYADSVKGRFTISRDNAKNTVYLQMNSLKPEDTAVYYCAARRAYFVAYIYDRDYWGQGTQVTVSS | high polyreactivity |
| QVQLQESGGGLVQAGGILRLSCAASGTISDRAGMGWYREAPAKNAIGATIDRGTNTNYADSVKGRFTISRDNAKNTVYLQMNSLKREDTAVYNCAADGRYYIYLDYWGQGTQVTVSS | low polyreactivity |
| QVQLVESGGGLVQARGSLRLSCAASGSTFVGYAMGWYRQAPGKEREFVAAITRGGSTNYADSVKGRFTISRDNAKNTVYLQMNSLKPEDTAVYYCAARDRREGFNFDYWGQGTQVTVSS | low polyreactivity |
| QVQLVESGGGLVQAGGSLRLTCAASGYTIIQYAMGWYRQAPGKERELVAGITWSGGSTYADSVKGRFTISRDNAKNTVYLQMNSLKPEATAVYYCAADDRDIYQYGTPYGSGIRYDYWGQGTQVTVSS | low polyreactivity |
| QVQLVESGGGLVQAGGSLRLSCAASGSIFYGYAMGWYRQAPGKERELVAAIRWSDGSTYYADSVKGRFTISRDNAKNTVYLQMNSLKPEDTAVYYCNADLWVPSYLWGDYWGQGTQVTVSS | low polyreactivity |
| QVQLVESGGGLVQAGGSLRLSCAASGLIFARYVMGWYRHAPGKERELVADIDKGGGSTYYADSVKGRFTISRDNAKNTDSLQMNSLKPEDSSVYYCIADFDGWWWDDYRGQGTQVTVSS | high polyreactivity |

From the nanobody polyreactivity screen of Harvey et al. (2022)
